To fix the notation:
B1: hDAPK2 CD + ARD wild type (pETM14 construct for SEC, SAXS, CaM pull-down and FA) [human] / itself (parent)
chain: NMEPFKQQKVEDFYDIGEELGSGQFAIVKKCREKSTGLEYAAKFIKKRQSRASRRGVSREEIEREVSILRQVLHHNVITLHDVYENRTDVVLILELVSGGELFDFLAQKESLSEEEATSFIKQILDGVNYLHTKKIAHFDLKPENIMLLDKNIPIPHIKLIDFGLAHEIEDGVEFKNIFGTPEFVAPEIVNYEPLGLEADMWSIGVITYILLSGASPFLGDTKQETLANITAVSYDFDEEFFSQTSELAKDFIRKLLVKETRKRLTIQEALRHPWITPVDNQQAMVRRESVVNLENFRKQYVRRRWKLSFSIVSLCNHLTR

This assay covers variants of B1. The experiment in a line: analytical size-exclusion chromatography (SEC). As to conditions: with itself.
In the case of chain 1 R48E R51E R54E R55E, the screen value came to 4410 kDa.

The values are drawn from PMC4906247.
